Here are results for 15 molecules from patent US20250090676A1 (SUTRO BIOPHARMA, published 2025).

For assay [1], the target named is T1, cynomolgus monkey folate receptor alpha (cynomolgus monkey, UniProt P15328 25-234 (human entry)).
T1 construct: Expressed on the surface of stably transfected CHO cells; also called cyno FolR1; CHO-cyno FolR1
The assay is described as follows: FACS, CHO-cFOLR1 cells. Background: In flow cytometry, cells or beads pass a laser one at a time.
Protocol: (§1) CHO cells were transfected to stably express human (CHO-hFOLR1), cynomolgus (CHO-cFOLR1), or mouse (CHO-mFOLR1) target molecule FOLR1 on the cell surface. Parental CHO cells were used as a negative control to determine background binding levels. Parental CHO and stably transfected CHO-hFOLR1, CHO-cFOLR1, and CHO-mFOLR1 cells were cultured in Ham's F-12: high glucose DMEM (50:50) (Corning, Cellgro-Mediatech) supplemented with 10% heat-inactivated fetal bovine serum (Corning, Cellgro-Mediatech), 1% Penicillin/Streptomycin (Corning, Cellgro-Mediatech) and 2 mmol/L-glutamax (Life Technology).
(§2) A mixture of fluoresecent-labeled parental CHO cells and unlabeled CHO-hFOLRlcells were prepared as follows. Parental CHO cells were washed twice in PBS and incubated in PBS containing with 1 nM CellTrace™ Oregon Green488® (Life Technologies) at 37° C. for 30 minutes. Labeled parental CHO cells were then washed 2× with Ham's F-12 media and 2× with FACS buffer (PBS with 1% bovine serum albumin). Unlabeled CHO-hFOLR1 cells were similarly washed and prepared. Labeled parental CHO and unlabeled CHO-hFOLR1 cells were combined at 1:1 ratio and seeded at 50 μL per well (200,000 cells per well) in 96 well polypropylene plates. Cells were mixed with 50 μL of test antibodies (i.e., anti-FOLR1 variants) serially diluted in FACS buffer and incubated on ice for 60 mins. […] Data were analyzed using FlowJo® software (FlowJo, LLC; Ashland, OR) to determine mean fluorescence intensities. Binding constants were calculated using the statistical software, GraphPad Prism (GraphPad Software; La Jolla, CA) using the nonlinear regression equation, one site-specific binding with Hill slope. Secondary antibody alone was used as a control, in addition to measuring non-specific antibody binding to CHO parental cells.

The target in assay [2] is T2, human folate receptor alpha (hFOLR1) (human, UniProt P15328 25-234).
T2 construct: endogenous on FOLR1-positive KB and Igrov1 cells (cell killing); also called human FolR1; FolRα
The assay is described as follows: FACS, CHO-hFOLR1 cells.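 Also: flow cytometry of serially diluted antibodies binding CHO cells stably expressing the receptor, 60 min on ice, mixed with dye-tagged parental CHO as background control, one-site specific fit with Hill slope.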
Protocol: as §1, §2

Assay [3] addresses T3, murine folate receptor alpha (mouse, UniProt P35846 25-232).
T3 construct: Expressed on the surface of stably transfected CHO cells; also called mouse FolR1; CHO-mouse FolR1
The assay can be described thus: FACS, CHO-mFOLR1 cells.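 Also: flow cytometry binding of serially diluted test antibodies to transfected CHO cells on ice, mean fluorescence intensity, parental CHO cells give background, Kd from one-site specific binding fit with Hill slope.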

Assay [4] has as its target T2, human folate receptor alpha (hFOLR1). The assay can be described thus: cell-based or functional assay.
The target in assay [5] is T4, human FOLR1-HIS (human, UniProt P15328 25-233).
T4 construct: Analyte of the Biacore assay; also called FolRα-ECD; extracellular domain of FOLR1; not shown: HIS tag
The assay can be described thus: SPR (Biacore). A general note: SPR reads the build-up and loss of mass on a sensor chip optically.

The target in assay [6] is T5, human folate receptor alpha (hFOLR1) on cells (human, UniProt P15328 25-234).
T5 construct: It is endogenous on the Igrov1 and OVCAR3 tumour cells of the killing assays; also called CHO-h-FOLRα; CHO-hFOLR1
The assay is described as follows: FACS cell binding on CHO-h-FOLRα cells.
Protocol: as §1
(§3) A mixture of fluoresecent-labeled parental CHO cells and unlabeled CHO-hFOLRlcells were prepared as follows. Parental CHO cells were washed twice in PBS and incubated in PBS containing with 1 nM CellTrace™ Oregon Green488® (Life Technologies) at 37° C. for 30 minutes. Labeled parental CHO cells were then washed 2× with Ham's F-12 media and 2× with FACS buffer (PBS with 1% bovine serum albumin). Unlabeled CHO-hFOLR1 cells were similarly washed and prepared. […] Data were analyzed using FlowJo® software (FlowJo, LLC; Ashland, OR) to determine mean fluorescence intensities. Binding constants were calculated using the statistical software, GraphPad Prism (GraphPad Software; La Jolla, CA) using the nonlinear regression equation, one site-specific binding with Hill slope. […]

The target of assay [7] is T6, cynomolgus folate receptor alpha on CHO cells (cynomolgus monkey, UniProt P15328 25-234 (human entry)).
T6 construct: Stably expressed on CHO cells; also called CHO-c-FOLRα; CHO-cFOLR1
The assay is described as follows: FACS cell binding on CHO-c-FOLRα cells (row 'Cross-reactivity, Cyno').
Protocol: as §1, §3

Assay [8] concerns the target T4, human FOLR1-HIS. The assay is described as follows: SPR (Biacore), antibody captured on anti-Fc, human FOLR1-HIS analyte, 25 C.
Protocol: Anti-Fc polyclonal antibodies were immobilized onto a CM5 chip (GE Life Sciences) using amine coupling chemistry (from Amine Coupling Kit, GE Life Sciences). The immobilization steps were carried out at a flow rate of 25 μL/min in 1×HBS-EP+ buffer (GE Life Sciences; 10× Stock diluted before use). […] Ethanolamine (1 M, pH 8.5) was injected for 7 min to block any remaining activated groups. An average of 12,000 response units (RU) of capture antibody was immobilized on each flow cell.
Off-rate and kinetic binding experiments were performed at 25° C. using 1×HBS-EP+ buffer. […] Between each ligand capture and analyte binding cycle, regeneration was carried out using 2 injections of 10 mM glycine pH 2.0 for 30 seconds at 30 μL/min, followed by a 30 second buffer wash step.
The data were fit with the Biacore T200 Evaluation software, using a 1:1 Langmuir binding model. KD (affinity, nM) was determined as a ratio of the kinetic rate constants calculated from the fits of the association and dissociation phases.
Assay [9] has as its target T7, human folate receptor alpha on cells (human, UniProt P15328 25-234). The assay can be described thus: cell-based or functional assay.
Assay [10] deals with T8, human folate receptor beta on cells (human, UniProt P14207 17-230). The assay can be described thus: cell-based or functional assay.
Assay [11] deals with T7, human folate receptor alpha on cells. The assay is described as follows: FACS cell binding (MFI) on 293T-hFOLR1 cells; parental 293T cells as negative control.
Assay [12] shares this target. The assay is described as follows: FACS cell binding (MFI) on 293T cells stably expressing hFOLR1 (293T-hFOLR1); parental 293T cells as negative control.
The target in assay [13] is T5, human folate receptor alpha (hFOLR1) on …. The assay is described as follows: cell-based or functional assay.
Assay [14] deals with T8, human folate receptor beta on cells. The assay is described as follows: FACS cell binding (MFI) on 293T cells stably expressing hFOLR2 (293T-hFOLR2); parental 293T cells as negative control.

Residue numbers refer to the chain shown, from its start. Some results are limits rather than exact numbers.

T3 sequence (P35846 25-232 limits assumed): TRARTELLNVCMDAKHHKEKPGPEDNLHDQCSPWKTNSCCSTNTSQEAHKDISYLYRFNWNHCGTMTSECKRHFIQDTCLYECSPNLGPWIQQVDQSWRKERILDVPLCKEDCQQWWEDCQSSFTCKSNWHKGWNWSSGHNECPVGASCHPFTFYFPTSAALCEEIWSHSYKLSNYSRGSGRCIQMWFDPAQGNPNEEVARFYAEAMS
T1 sequence (P15328 other isoform, or with tags, fused parts or gaps limits assumed): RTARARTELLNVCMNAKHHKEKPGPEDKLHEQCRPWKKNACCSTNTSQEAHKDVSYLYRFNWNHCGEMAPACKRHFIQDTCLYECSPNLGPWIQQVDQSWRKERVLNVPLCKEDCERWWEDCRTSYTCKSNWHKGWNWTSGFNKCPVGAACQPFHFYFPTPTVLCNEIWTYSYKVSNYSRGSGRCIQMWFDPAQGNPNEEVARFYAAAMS
T2 sequence (P15328 25-234 limits assumed): as the sequence (P15328 other isoform, or with tags, fused parts or gaps limits assumed) above, with T2I, R4W, K37R, R117Q, P146A, Y171H counted along it
T5 sequence (P15328 25-234 limits assumed): as the sequence (P15328 other isoform, or with tags, fused parts or gaps limits assumed) above, with T2I, R4W, K37R, R117Q, P146A, Y171H counted along it
T7 sequence (P15328 25-234 limits assumed): as the sequence (P15328 other isoform, or with tags, fused parts or gaps limits assumed) above, with T2I, R4W, K37R, R117Q, P146A, Y171H counted along it
T4 sequence (P15328 25-233 limits assumed): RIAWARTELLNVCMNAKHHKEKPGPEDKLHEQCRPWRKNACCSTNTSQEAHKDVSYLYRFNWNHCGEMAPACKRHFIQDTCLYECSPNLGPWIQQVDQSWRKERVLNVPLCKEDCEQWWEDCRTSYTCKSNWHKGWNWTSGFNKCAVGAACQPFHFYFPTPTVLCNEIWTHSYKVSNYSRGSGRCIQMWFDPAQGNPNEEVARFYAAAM
T6 sequence (P15328 other isoform, or with tags, fused parts or gaps limits assumed): as the sequence (P15328 other isoform, or with tags, fused parts or gaps limits assumed) above
T8 sequence (P14207 17-230): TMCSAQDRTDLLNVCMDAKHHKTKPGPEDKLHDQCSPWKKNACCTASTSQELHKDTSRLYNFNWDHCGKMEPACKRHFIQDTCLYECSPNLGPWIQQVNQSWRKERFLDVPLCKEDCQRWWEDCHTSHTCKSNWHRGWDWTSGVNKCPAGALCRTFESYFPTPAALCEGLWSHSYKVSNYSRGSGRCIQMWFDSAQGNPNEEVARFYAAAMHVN

B1: SRP1848-E06 (antibody, V domains shown)
VH: EVQLVESGGGLVQPSGSLRLSCAASGFNINRYYIHWVRQAPGKGLEWVGGITPNDGYTDYADSVEGRFTTSADTSKNTAYLQMNSLRAEDTAVYYCARGTWSWPSGHSYYLDYWGQGTLVTVSS
VL: not shown
notes: HC variant paired with trastuzumab LC, cell-free expressed, HIS- and FLAG-tagged; also called Antibody 35
Broadly, the Kd is the free concentration of one partner at which half of the binding sites on the other are occupied at equilibrium, for simple one-to-one binding. In the case of B1, in assay [1], the “Bmax (MFI)” value is 15800 MFI and the dissociation constant Kd turned out to be 0.26 nM. In [2], the “Bmax (MFI)” value was found to be 25600 MFI and the Kd was 0.48 nM. Besides, in assay [3], the “Bmax (MFI)” value turned out to be 2350 MFI and the Kd stood at 1.2 nM. For the same molecule, in [4], the “Igrov, 2° Antibody Cell Killing, Nb-SC239: EC50” value (“Igrov … Nb-SC239: EC50” below) is 0.025 nM; the “Igrov, 2° Antibody Cell Killing, Nb-SC239: Span” value (“Igrov … Span” below) came to 74%; the “KB, 2° Antibody Cell Killing, Nb-239: Span” value (from here on “KB … Span”) is 93%.

B2: 1848-B10, Y180/F404 (antibody, V domains shown)
VH: EVQLVESGGGLVQPGGSLRLSCAASGFNTTTKSIHWVRQAPGKGLEWVGEIYPRDGITDYADSVKGRFTISADTSKNTAYLQMNSLRAEDTAVYYCARGGWHWRSGYSYYLDYWGQGTLVTVSS
VL: not shown
modifications: para-azidomethyl-L-phenylalanine (pAMF) at HC-Y180 and HC-F404 (EU numbering; both lie in the heavy chain constant region, not in this VH piece)
notes: Lead antibody with non-natural amino acid sites Y180/F404
Take B2: the Kd in the assay with human FOLR1-HIS [5] was 1.4 nM; in assay [6], 4.5 nM; in assay [7] it was 3.3 nM.

B3: 1848-H01, Y180/F404 (antibody, V domains shown)
VH: EVQLVESGGGLVQPGGSLRLSCAASGFNIRTQSIHWVRQAPGKGLEWIGDIFPIDGITDYADSVKGRFTISADTSKNTAYLQMNSLRAEDTAVYYCARGSWSWPSGMDYYLDYWGQGTLVTVSS
VL: not shown
modifications: para-azidomethyl-L-phenylalanine (pAMF) at HC-Y180 and HC-F404 (EU numbering; both lie in the heavy chain constant region, not in this VH piece)
notes: as for B2
Take B3: the Kd with human FOLR1-HIS [5] is 1 nM; in assay [6], 3.7 nM; in assay [7] it was 3.8 nM.

B4: SRP1848-E03 (antibody, V domains shown)
VH: EVQLVESGGGLAQPGGSLRLSCAASGFNIGNYYIHWVRQAPGKGLEWVGGITPRDGFTDYADSVKGRFTISADTSKNTAYLQVNSLRAEDTAVYYCARGSWSWPAGHSYYLDYWGQGTLVTVSS
VL: not shown
notes: HC variant paired with trastuzumab LC, cell-free expressed, HIS- and FLAG-tagged; also called Antibody 33
B4: in assay [1], the “Bmax (MFI)” value amounted to 17400 MFI and the Kd was 0.43 nM. In [2], the “Bmax (MFI)” value amounted to 26700 MFI and the Kd was 0.76 nM. Further, in assay [3], the “Bmax (MFI)” value was found to be 5940 MFI and the equilibrium dissociation constant (Kd) came to 0.5 nM. In assay [4], the “Igrov … Nb-SC239: EC50” value was 0.027 nM; the “Igrov … Span” value was 73%; the “KB, 2° Antibody Cell Killing, Nb-239: EC50” value (“KB … EC50” below) was determined as 0.057 nM; the “KB … Span” value was 94%.

B5: SRP1848-G09 (antibody, V domains shown)
VH: EVQLVESGGGLVQPGGSLRLSCAASGFNIRGTDIHWVRQAPGKGLEWVAYITPAGGATFYADSVKGRFTISADTSKNTAYLQMNSLRAEDTAVYYCARHEYWFSGYMDYWGQGTLVTVSS
VL: not shown
notes: HC variant paired with trastuzumab LC, cell-free expressed, HIS- and FLAG-tagged; also called Antibody 52
Turning to B5, in assay [1], the “Bmax (MFI)” value was 17700 MFI and binding was put at a Kd of 0.35 nM. In assay [2], the “Bmax (MFI)” value was 25100 MFI and the affinity, expressed as Kd, was 0.59 nM. In [3], the “Bmax (MFI)” value was 2180 MFI and binding was characterised by a dissociation constant (Kd) of 6.4 nM. Besides, in assay [4], the “Igrov … Nb-SC239: EC50” value was determined as 0.036 nM; the “Igrov … Span” value was 83%; the “KB … EC50” value was 0.073 nM; the “KB … Span” value was determined as 97%.

B6: SRP1848-G11 (antibody, V domains shown)
VH: B5 VH with R30S, G31S, F59W, H99Y, E100P
VL: not shown
notes: HC variant paired with trastuzumab LC, cell-free expressed, HIS- and FLAG-tagged; also called Antibody 54
Consider B6, for which, in assay [1], the “Bmax (MFI)” value came to 11800 MFI and binding was characterised by a dissociation constant (Kd) of 0.26 nM. Further, in [2], the “Bmax (MFI)” value stood at 27200 MFI and binding was put at a Kd of 0.68 nM. Further, in [3], the “Bmax (MFI)” value is 2740 MFI and the affinity, expressed as Kd, was 7.6 nM. For the same molecule, in [4], the “Igrov … Nb-SC239: EC50” value was 0.023 nM; the “Igrov … Span” value stood at 84%; the “KB … EC50” value worked out at 0.04 nM; the “KB … Span” value is 97%.

B7: SRP1848-G10 (antibody, V domains shown)
VH: B5 VH with G16S, G31S, F59Y, H99Y, E100P, S104A, M107I
VL: not shown
notes: HC variant paired with trastuzumab LC, cell-free expressed, HIS- and FLAG-tagged; also called Antibody 53
B7: in assay [1], the “Bmax (MFI)” value was determined as 14200 MFI and the Kd worked out at 0.24 nM. In assay [2], the “Bmax (MFI)” value is 25300 MFI and the Kd was determined as 0.49 nM. Moreover, in assay [3], the “Bmax (MFI)” value is 2890 MFI and the Kd was 4.3 nM. Moreover, in assay [4], the “Igrov … Nb-SC239: EC50” value was 0.019 nM; the “Igrov … Span” value came to 79%; the “KB … EC50” value turned out to be 0.046 nM; the “KB … Span” value is 97%.

B8: SRP2060-E10 (antibody, V domains shown)
VH: EVQLLESGGGLVQPGGSLRLSCAFSGFSLSTFGMGVGWVRQAPGKGLEWVSHIWWDDDKYYHPALKGRFTISKDNSKNTVYLQMNSLRAEDTAVYYCGRNHFPHYYGSSHWYFNVWGQGTTVTVSS
VL: EIVMTQSPATLSLSPGERATLSCKASQDINSYLSWYQQKPGQAPRLLIYRANRLVDGIPARFSGSGSGTDYTLTISSLEPEDFAVYYCLQYDEFPYTFGGGTKVEIK
notes: also called Antibody 56
Broadly, the koff is a measure of how fast the partners let go of each other. One may read the kon as a measure of how fast the partners come together. In the assay with human FOLR1-HIS [8], B8 displayed a Kd of 2.06 nM, a koff of 0.0012 s⁻¹ and a kon of 582000 M⁻¹ s⁻¹.

B9: SRP2060-B01 (antibody, V domains shown)
VH: B8 VH with F24L, P43T, Y81H
VL: DIQMTQSPSTLSASVGDRVTITCKASQDINSYLSWYQQKPGKAPKLLIYRANRLVDGVPSRFSGSGSGTEFTLTISSLQPDDFATYYCLQYDEFPYTFGGGTKVEIK
notes: also called Antibody 58
In the assay with human FOLR1-HIS [8], B9 gave a Kd of 2.62 nM, a koff of 0.00147 s⁻¹ and a kon of 561000 M⁻¹ s⁻¹.

B10: SRP2060-E05 (antibody, V domains shown)
VH: B8 VH with I71V
VL: B8 VL
notes: also called Antibody 57
In the assay with human FOLR1-HIS [8], B10 registered a Kd of 2.92 nM, an off-rate (koff) of 0.00158 s⁻¹ and a kon of 541000 M⁻¹ s⁻¹.

B11: SRP2060-A06 (antibody, V domains shown)
VH: B8 VH with S51G, H62Y, N114D
VL: B9 VL
notes: also called Antibody 59
With B11, in the assay with human FOLR1-HIS [8], binding was put at a Kd of 13.3 nM, the off-rate constant (koff) was 0.00729 s⁻¹ and the kon came to 547000 M⁻¹ s⁻¹.

B12: ADC Molecule 4 (1848-H01, Y180/F404, Conjugate P) (antibody, V domains shown)
VH: B3 VH
VL: not shown
modifications: Non-natural amino acid (para-azidomethyl-L-phenylalanine) at HC-Y180 and HC-F404 (EU, in the constant region, which has no SEQ ID NO), each linked to cleavable ValCit hemiasterlin (Conjugate P); DAR about 3.7-3.8
In the case of B12, the “EC50 of cytotoxic activity on 293T cells expressing FolRα” value in assay [9] is less than 10 nM. In addition, the “EC50 of cytotoxic activity on 293T cells expressing FolRβ” value in [10] was approximately 100 nM.

B13: antibody 1848-H01 (antibody, V domains shown)
VH: B3 VH
VL: not shown
notes: the light chain is that of trastuzumab; It was tested as an IgG (detected with anti-human IgG); also called SRP1848-H01
The term EC50 (read off the curve) denotes the concentration that produces a half-maximal response. In the case of B13, the “EC50 (read off the curve)” value in assay [11] is approximately 10 nM. Further, in assay [12], the Kd came to 9.9 nM.

B14: ADC Molecule 4 (1848-H01, Y180/F404, Conjugate P) (antibody, V domains shown)
VH: B3 VH
VL: not shown
modifications: para-azidomethyl-L-phenylalanine at HC-Y180 and HC-F404 (EU numbering, heavy chain constant region), each linked to the cleavable hemiasterlin linker-drug of Conjugate P; DAR about 3.7-3.8
B14: in assay [13], the “cell killing EC50 on Igrov1 cells in the presence of 0.5 uM unconjugated 1848-H01 as competitor” value is more than 33 nM and the “cell killing EC50 on OVCAR3 cells in the presence of 0.5 uM unconjugated 1848-H01 as competitor” value is more than 33 nM.

B15: antibody 1848-B10 (antibody, V domains shown)
VH: B2 VH
VL: not shown
notes: the light chain is that of trastuzumab; It was tested as an IgG; also called SRP1848-B10
On to B15, for which the Kd in assay [12] was determined as 6.4 nM. Besides, in [14], the binding result is on record as “no binding”.
